Experimental findings from paper PMC6465352 (Scientific Reports, 2019) are described below.

Data set [1] deals with T1, SyCS (Synechocystis sp. PCC 6803, UniProt Q59977).
T1 construct: gene gltA; full-length gltA (synthesized) in pGEX5X-1, GST-tagged, tag not reported cut; expressed in E. coli DH5alpha, glutathione-Sepharose purified
T1 sequence (Q59977 1-397): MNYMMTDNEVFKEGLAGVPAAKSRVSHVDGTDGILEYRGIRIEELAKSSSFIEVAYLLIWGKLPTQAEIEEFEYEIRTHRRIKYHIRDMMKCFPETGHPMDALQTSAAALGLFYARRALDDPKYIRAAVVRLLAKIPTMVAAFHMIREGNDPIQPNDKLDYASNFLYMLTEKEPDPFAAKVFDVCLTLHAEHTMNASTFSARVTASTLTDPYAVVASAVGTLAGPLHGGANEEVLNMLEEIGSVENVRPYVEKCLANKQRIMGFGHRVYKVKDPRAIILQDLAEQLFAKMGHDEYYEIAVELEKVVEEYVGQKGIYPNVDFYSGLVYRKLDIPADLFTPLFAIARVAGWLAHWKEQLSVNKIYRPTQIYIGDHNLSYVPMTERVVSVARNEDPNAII
Description: DTNB assay at A412, residual activity. Type of data set: biochemical. Conditions: read-out: % activity at 5 mM.

The target in data set [2] is T1, SyCS. Description: DTNB assay at A412, relative activity. Conditions: read-out: % activity at 5 mM. Type of data set: biochemical.
Substrate in data set [3]: CC(=O)SCCNC(=O)CCNC(=O)[C@H](O)C(C)(C)COP(=O)(O)OP(=O)(O)OC[C@H]1O[C@@H](n2cnc3c(N)ncnc32)[C@H](O)[C@@H]1OP(=O)(O)O
The experiment in a line: DTNB assay at A412, Lineweaver-Burk. It counts as biochemical, Synechocystis sp. PCC 6803. Conditions: oxaloacetate 1 mM, no effector, 50 mM Tris-HCl pH 7.5, 37 °C, GST-tagged enzyme. From the text:
(§1) DTNB assay at […], Lineweaver-Burk on SyCS

Substrate in data set [4]: O=C(O)CC(=O)C(=O)O
Description: DTNB assay at A412, Lineweaver-Burk. Conditions: acetyl-CoA 0.5 mM, no effector, 50 mM Tris-HCl pH 7.5, 37 °C, GST-tagged enzyme. It counts as biochemical, Synechocystis sp. PCC 6803.
Source text: as §1

Take `C=C(OP(=O)(O)O)C(=O)O` [phosphoenolpyruvate]: the activity at 5000 µM at SyCS [1] is 14%.
Turning to `Nc1ncnc2c1ncn2[C@@H]1O[C@H](COP(=O)(O)OP(=O)(O)O)[C@@H](O)[C@H]1O` [ADP], at SyCS [2], the activity at 5000 µM was found to be 369%.
For the molecule `O=C(O)CCC(=O)C(=O)O` [2-oxoglutarate], on SyCS [1], the activity at 5000 µM turned out to be 2%.

B1: SyCS (Synechocystis sp. PCC 6803 substr. Kazusa) (protein)
chain: T1 sequence (Q59977 1-397)
notes: full-length gltA (synthesized) in pGEX5X-1, GST-tagged, tag not reported cut; expressed in E. coli DH5alpha, glutathione-Sepharose purified
Regarding B1, in data set [3], the Michaelis-Menten constant (Km) came out at 220 ± 77 µM, the kcat was determined as 2.51 ± 0.24 s⁻¹ and the kcat/Km was 12100 ± 2950 M⁻¹ s⁻¹. Further, in data set [4], the Km amounted to 91 ± 11 µM, the catalytic constant (kcat) stood at 2.76 ± 0.26 s⁻¹ and the specificity constant (kcat/Km) was 30500 ± 3170 M⁻¹ s⁻¹.

One may read the Km as the substrate concentration at which the rate is half of its maximum. One may read the kcat as the maximal rate divided by the concentration of active sites. A word on the kcat/Km: it is the turnover number divided by the Michaelis constant.
